Results on two substances are retold here after paper PMC7098737.

Where “and” joins values, the source holds several entries; their conditions need not be identical. Equal values may be shown once.

Test [1] has as its target recombinant human mannan-binding lectin M1 (6xHis, MAKT, human IgG1 Fc C220-G446, Arg linker, human MBL2 neck and CRD 81-228) (human) (UniProt P11226). The experiment in a line: native gel or EMSA; native PAGE of purified M1 and of purified M2; oligomer size from the apparent molecular weight against the monomer's size by SDS-PAGE; for M2 the names trimer, tetramer, pentamer count subunits of three 32-kDa chains. On the technique in general: In EMSA bound probe runs differently from free probe, usually more slowly.

For test [2], the target named is M2-Strep-tag II fusion protein (Strep II tag, 6xHis tag, full-length human MBL2) (human) (UniProt P11226). The test is described as above.

On to “recombinant human mannan-binding lectin M1 (6xHis, MAKT, human IgG1 Fc C220-G446, Arg linker, human MBL2 neck and CRD 81-228) (from UniProt P11226 101-248) (Fc fusion)”, for which the stoichiometry N (usually a count of units in the complex or per binding partner) in test [1] is 6 monomers.
On to “M2-Strep-tag II fusion protein (Strep II tag, 6xHis tag, full-length human MBL2) (from UniProt P11226 21-248) (natural protein)”, for which the stoichiometry N in test [2] is 4 and 3 and 5.
